Test results from the nanobody polyreactivity screen of Harvey et al. (2022).

Experiment: yeast display, Sf9 membrane polyspecificity reagent, FACS + sequencing; frameworks hold sequencing errors
Procedure, shortened: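 A synthetic nanobody library was expressed on Saccharomyces cerevisiae BJ5465 by galactose induction for 36–48 hours. The library was stained for 1 hour at 4 °C with 10% biotinylated, detergent-solubilized Sf9 membrane reagent and enriched with streptavidin microbeads before FACS. Low and high (top ~1%) gates were set on anti-HA fluorescence for expression and streptavidin fluorescence for reagent binding, and each polyreactivity label reflects the gate of origin.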
With “QVHLVESGGGLVQAGGSLRLSWAASGRNFTRYAMGWYSQAPGKERELVASIRHSGGSTYYADSVKGRFTISRDNAKKTVYLLINSLKPEDTADFYCAARGKKGTRYKYNYWGQRTQVTVSS” the “polyreactivity (PSR sort gate)” value was “high polyreactivity”. With “QVHLVESGGGLVQAGGSLRLTCAASGSIFSYAMGWYRQAPGKESELVAAISSGGGRTYYADSVKGRFTISRDNAKNTVYLQMNRLKPEDTAVYFCAAVGLPQGRYGYWGQGTQVTLSS” the “polyreactivity (PSR sort gate)” value was “high polyreactivity”. With “QVHLVESGGGLVQAGGSLRLTCAASGSIFTYNAMGWYRQAPGKEREFVAAISRCGGNTKYADSVKGRFTISRDNAKNTVYFQMNSLKPEDTAVYYCAVRTIAYSGFRYNYWGQGTQVTVSS” the “polyreactivity (PSR sort gate)” value was “high polyreactivity”. In the case of “QVHLVESGGGLVQAGGSLSLSCDASGYIISSYVMGWYRQAPGKERELVAAISRRGGSTYYADSVKGRFTISRDNAKNTVYLQMNSLIPEDTAVYYCAADGLSGYGSGRYYGMGYCGQGTQVTVSS”, the “polyreactivity (PSR sort gate)” value is reported as “high polyreactivity”. For “QVHLVESGGGLVQAGGSRRLSCAASGFTLSYYAMGWYRQAPGKERELVATISRVGTTYADSVKGRFTISRDNAKNTVYLQMNSLKPEDTAVYYCAVRSRWPYYFTRGVREGDYWGQGTQVTVSS”, the “polyreactivity (PSR sort gate)” value was “high polyreactivity”. In the case of “QVHLVESGGGLVQAGGTLRLRCAASGSTFVYNDMGWYRQAPGKERELVAAISTSGGSTYYADSVKGRFTISRDNAKNTVYLQMNSLKPEDTAVYFCAVDSYYFGYWAIQWEGDYWGQGTQVTVSS”, the “polyreactivity (PSR sort gate)” value is reported as “low polyreactivity”. For “QVHLVESGGGLVQAGGTLRLSCAASGRIFHPNEMRWYRQAPGKEWELVAAISWRGTSTYADSVKGRFTISRDNAKNTVYLQMNSLKPEDTAVYYCVRRYTGLPGWSSYGSYESGYWGQGTQVTVSS”, the “polyreactivity (PSR sort gate)” value was “high polyreactivity”. For “QVHLVESGGGLVQAGRSLRLICAASGSTFPTYAMGWYRQAPGKETELVAAISTRGGSTYYADSVKGRFTISRDNAKNTVYLQMNSVKPEDTAVYYCATGKTVGRYHYEYWGQGTQVTVSS”, the “polyreactivity (PSR sort gate)” value was “low polyreactivity”. In the case of “QVHLVESGGGLVQAGVSLRLSCAASGLTFGPYAMGWYRQAPGKERELVAAITSGGNTNYADSVKGRFTISRDNAKNTVYLQMNSLKPEDTAVYYCATSYYLAYRSITPYDYWGQGTQVTVSS”, the “polyreactivity (PSR sort gate)” value is reported as “low polyreactivity”. With “QVHLVESGGGLVQAGVSLRLSCAAYVRIFGRNAMGWYRQAPGKEREFVAAITYSGTSTYYADSVKGRFTISRDNAKNTVYLQMNSLKREDTAVYYCNAQYLPSHVYGRYSSTFNYWGQGTQLTVSS” the “polyreactivity (PSR sort gate)” value was “low polyreactivity”. For “QVHLVESGGGLVQAVSSLRLSCAASGSTFRAYAMGWYRQEPGKDRELVARITFSGGSTYYADSVKGRFTISRDNAKNTVYLQMNSLKPEDTAVYYCNARRTYLDRYNYWGQGTQVTVSS”, the “polyreactivity (PSR sort gate)” value was “high polyreactivity”. For “QVHLVESGGGVVQAGGSLRLSCAASGRIFPSYDRGWYRQAPGKERELVATISSRGDSTYYADSVKGRFTISRDNAKNTVYLQMNSLKPEDTAVYYCAAERPFWEYDYWGQGTQVTVSS”, the “polyreactivity (PSR sort gate)” value was “low polyreactivity”. For “QVHLVESGGRLVQAGGSLRLSCAASGGTFYQYTMGWYRQAPGKERELVAAITRSGGSTRYADTVKGRFTISRDNAKNTVYLQMNSLKPEDTAVFYCAARSGYPSFEYWGPGTQVTVSS”, the “polyreactivity (PSR sort gate)” value was “high polyreactivity”. For “QVHLVESGGVLVQAGGSLRLSCAASGSIFAKYAMGWYRQAPGKERELVAAISRSSVRTRYADSVKGRFTISRDNAKNTVYLQMNSLKPADTAVYYCNAYYRSYAYSHLDYWGQGTQVTVSS”, the “polyreactivity (PSR sort gate)” value was “high polyreactivity”. For “QVHLVESGGVLVQAGGSLRLSCAASGSPFTKYAMGWYRQAPGKERELVAAFTGGGGSTYYADSVKGRFTISRDNAKNTVYLQLNSLKPEDSAVYYCAAKVALSRFRQWSYDYWGQGTQVTVSS”, the “polyreactivity (PSR sort gate)” value was “low polyreactivity”. With “QVHLVESGRGLVQAGGSLRLSCAASGSTFGWNTMGWYRQAPAKERELVAAISWSGDRTYYADSVKGRFTISRDNAKNTVYLQMNRLKPEDTAVYYCARQRYYGYYYWGQGTQVTVSS” the “polyreactivity (PSR sort gate)” value was “high polyreactivity”. For “QVHLVESGVGLGQAGGSLRLSCAASGSIFYSNAMGWYRPAPGKERELVATITWSGGRTYYADSVKGRFTISRDYAKNTFYLQMHSLKPEDTAVYYCAAVSIYWGHGTQVTVSS”, the “polyreactivity (PSR sort gate)” value was “low polyreactivity”. In the case of “QVHLVESGVGLVQAGGSLRLSCAASGRIFFANPIGWYRQAPGKERELVAANSRGGRTNYADSVKGRFTISRDNAKNTVYLQMNSLNPEDTAVYYCAAVRLSHAPSYYLYGMDYWGQGTQVTVSS”, the “polyreactivity (PSR sort gate)” value is reported as “low polyreactivity”. In the case of “QVHLVESGVGLVQAGGSLRLSCAAYGYTFTRNAKGWSRQAPGKERELVAAISKRGGTTYYADSVKGRFTISRDNEKYSVYLQMNSLKPEDTAVYYCAKDGGITGGYWGQGTQVTVSS”, the “polyreactivity (PSR sort gate)” value is reported as “high polyreactivity”. For “QVHLVESGVGLVQAGGSLRLSCASSGRIFYDNSMGWYRQAPGKERELVAAISYRGGSTYYADSVKGRFTISRDNAKNTVYLLMNSLKPEDTAVYYCARAGFTTCPDHDSWGQGTQVTVSS”, the “polyreactivity (PSR sort gate)” value was “high polyreactivity”. For “QVHLVESGVGLVQAGVSHRLSCAASGSTYRGYAMGWYRQAPGKERELVAPITYISDSTYYADSVKGRFTISRDNAKNTVYLQMNSLKPEDSAVYYCNDYYDGDWRYTSQETGDNWGQGTQVTVSS”, the “polyreactivity (PSR sort gate)” value was “low polyreactivity”. With “QVHLVESVGGLLQAGGSLPLSCPASGSTFYDYAMGWYRPAPGKERELVASITTGGDSTYYADSVKGRFTISRDNAKNSVYLQMKSLIPEDSAVYYFNADWYYWFSNYQGAPEMDYWGQGTQVSVSS” the “polyreactivity (PSR sort gate)” value was “high polyreactivity”. In the case of “QVHLVESVGGLVQAGGSLRLSCAASGRIFGYYAMGWYRQAPGKERELVAAISTNGGTTYYADSVKGRFTISRDNAKNTVYLQMNSLKPEDTAVYYCAATYTVPGHARYDYWGQGTQVTVSS”, the “polyreactivity (PSR sort gate)” value is reported as “low polyreactivity”. In the case of “QVHLVESVGGLVQAGGSLRLSCTASGSTCVAYDMGWYRQAPGQERDLVAAITSSGGRTYYADSVKGRFKFSLDNAMNTVYLQMNSLKPEDTAVYYCAAVTHGRYDWGQGPQVTVSS”, the “polyreactivity (PSR sort gate)” value is reported as “high polyreactivity”. In the case of “QVHLVESVGGLVQAGGSLRLSSAASGSTFGYYAMGWYRQAPGKERELVAAINARGGSTYYADSVKGRFTISRDNAKNTVYLQMNSLKPEDTAVYYCAAVHIYSYGIYDYWGQGTQVTVSS”, the “polyreactivity (PSR sort gate)” value is reported as “high polyreactivity”. For “QVHLVESVGRLVQEGGSLRLICAASAFNIYTYAMGWSRQAPGKEREMVAAISKSGGSTYSADSVKGRFTISRDNAKNTVYVQMNSLKPVDTAVYYCAVSDARHLGSGRYYWCQGTQVTVSS”, the “polyreactivity (PSR sort gate)” value was “low polyreactivity”. With “QVHLVETGGALVQAGGSLRISCAASGLTFLDYAMGWYRQSTGKERELGAAITSGGSTNYADSVKGRFTISGDNATTTVYFQMISLKPEDTAVYYCATDLEVSAYDYWGQGNQVTVSS” the “polyreactivity (PSR sort gate)” value was “low polyreactivity”. With “QVHLVETGGCLVQAGGSLRLSCAASGRTFYQNTMGWYRQAPGKERELVAAISSGGSTHYADSVKGRFTISRDNAKNTVYLQMNSLKPEDTAVYYCAKRYFYSYRYGYWGQGTQVTVSS” the “polyreactivity (PSR sort gate)” value was “high polyreactivity”. With “QVHLVETGGGLVQAGGSLRLSCAASGITFDQYAMGWYRQAPGKERELVAAITGSGGNTYYADSVKGRFTISRDNAKNTVYLQMNSLKPEDTAVYSCGAAVGRARDYWGQGTQVTVSS” the “polyreactivity (PSR sort gate)” value was “low polyreactivity”. With “QVHLVQSGGGIDQAGGSLRLSCAASGSTYVVNTMGWYRQAPGKDRELVAANTQSGGSTFYADSVKGRFTISRDNAKNTVYLHMTSLKAEDTAVYYCNAGDFEGAVVVFIQHGGYYWGQGTQVTVSS” the “polyreactivity (PSR sort gate)” value was “low polyreactivity”. For “QVHLVVSGGGLVQAGGSLRLSCAAYGRTFRIYAMGWYRQAPGKDRELVARITKRAGSTYYADSVKGRFTISRDNAKNTVYLQMNRLKPEDTSVYYCAADVRVQYRQDLTYDYWGQGTQVTVSS”, the “polyreactivity (PSR sort gate)” value was “high polyreactivity”. With “QVHLVVSWGGLVQAGGSLRLSCSASGITFKRYAMGWYRQSRGNERELVAAINWNGCGTYYADSVKGRFTISRDNAKNTVYLQMNSLKPEDTAVYYCAAGLAYWYWRGYDYWGQGTQVTVSS” the “polyreactivity (PSR sort gate)” value was “high polyreactivity”. In the case of “QVHRVESGGGLVQAGASLRLSCAASGIIFDTYAMGCYRQAPGKEREIVAAITWNGGSTYYADSVKGRFTISRDNAKNPVYLQMNSLKPEDTPVYYCAKLPRTLTEYGYKGYYWGQGTQVTVSS”, the “polyreactivity (PSR sort gate)” value is reported as “low polyreactivity”. With “QVHVVESGGGLVQAGGSLGLSCAASGITFTAYAMGWYRQAPGKERELVATINSTGITNYADSVKGRFTISRDNSKNTVFLQMNSLKPEDTAVYYCAADLLDISSYDGMDYWGQGTQVTVSS” the “polyreactivity (PSR sort gate)” value was “low polyreactivity”. In the case of “QVHVVESGGGLVQAGGSLRLSCAASGRTFYGYAMGWYRQAPGKERELVAGITSGGNTNYADSVKGRFTISRDNAKNTVYLQMNSLKPEDTAVYYCAADRYSFRGDYYWGQGTQVTVSS”, the “polyreactivity (PSR sort gate)” value is reported as “low polyreactivity”. For “QVKIVESGGGLVQAGGSLRLSCAATGITFAWYAMGWYRQAPGKERELVAAITWSGDSTYYADSVKGRFTISRDNAKNTVYLQMKSLKPEDTAVYYCAAEGLVFWFGTPYDYWGQGTQVTVSS”, the “polyreactivity (PSR sort gate)” value was “high polyreactivity”. With “QVKLEESAGGLVQSGGSLRISCAASGSTLVSNAMGWYRQAPGQERELVADNSLSGGSTYYADSVKGRFTISRDYAKNTVYLQMNSLKPEDTEVYYCARVAPSSGVRWYYYWGQGTQVTVSS” the “polyreactivity (PSR sort gate)” value was “high polyreactivity”. In the case of “QVKLEESGGGLVQEGGSLRISCAASVRIFGNYSMGWSRQAPGKEMELVAAIDLSGDSTYYADSVKGRFTISRDNAKNTVYLQMNSLKPEDTAVYYCAATDWFSEYYWGQATQVTVSS”, the “polyreactivity (PSR sort gate)” value is reported as “low polyreactivity”. For “QVKLLDSGGGLVQAGGSLRLSCAASGRNFYYYAMGWYRQAPGNERELVAAISSCGSTYADSVKGRFTISRDNAKTTVYLQMNSLKPEDTAVYYCAAYLSRLGPSGYYYWGQGTQVTVSS”, the “polyreactivity (PSR sort gate)” value was “high polyreactivity”. For “QVKLLESGGGLVQAGGSLRLTCAASGFIFRRYTMGWYRHAPGEEREWVAAISITGSRTYYADSVKGRFTISPDNAKNNVYLQMNSLKPEDTAVYYCAADPDKSSAGDFDYWGHGTQVTVSS”, the “polyreactivity (PSR sort gate)” value was “high polyreactivity”. With “QVKLLESGGGLVQSGGSLRLSCAAYAIIFRWYTMGGYRQAPGKERQLVAAISTSTGSTYYADSVKGRFTISRDNAKNTVYLQMNSLKPEDTAVYYCAADYAYWNYESYYWGQGTQVTVSS” the “polyreactivity (PSR sort gate)” value was “high polyreactivity”.
